Results published in patent US20020173462A1.

Experiments:
[1] = molecular target: human fibrinogen (human) (UniProt P02671); assay: affinity blot, dilution series of antigen and fibrinogen
[2] = molecular target: human prothrombin (human) (UniProt P00734); assay: affinity blot, dilution series of antigen and prothrombin

For “87 kDa fibrinogen-binding protein (coagulase)”, the amount of protein detected with 10 ng/ml of fibrinogen [1] was 0.1 ng.

With “60 kDa fibrinogen-binding protein (Eap, extracellular adherence protein)” the amount of protein detected with 10 ng/ml of fibrinogen [1] was 0.1 ng and the amount of protein detected with 10 ng/ml of prothrombin [2] was 0.1 ng.
